Results: the supplement of paper PMC10126150
± gives the standard deviation of the averaged measurements.

Tested on: ATP
Test: switch fluorescence ratio, 500 uM ATP over buffer (Cy3 cluster intensity, sum of 5 cycles each) (fold (ratio)); higher = stronger signal-on switching upon ATP binding; sequences stand for … in TCGTCGGCAGCGTCAGATGTGTATAAGAGACAGTTTTTTTTTTTTTTTTTTTTTTTTT…TC
Settings: aptamer strand: ATP DNA aptamer (quencher-CACCTGGGGGAGTATTGCGGAGGAAGG + anchor), 100 nM annealed; ATP concentration: 500 uM
How it was run: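 After annealing to 100 nM quencher-labelled ATP aptamer, Cy3-labelled switching-strand clusters on a modified Illumina MiSeq flow-cell were imaged in selection buffer. A second image followed after 15 min with 500 uM ATP at 22 °C, and five such buffer/ATP cycles were done, each separated by NaOH stripping and re-annealing. The fluorescence ratio, averaged per switch-domain sequence, is summed target-cycle over summed buffer-cycle Cy3 intensity per cluster, with clusters outside 100-1000 RFU excluded.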
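Note: ATP exposure 15 min at 22 °C before imaging.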

| Sequence | switch fluorescence ratio |
| --- | --- |
| TATAGGGAAT | 0.98384 ± 3.5e-05 |
| GTGGGGGTTG | 0.976 ± 0.043 |
| TAAAAATTCA | 1.009 ± 0.0021 |
| AGACGCGTAG | 0.999 ± 0.046 |
| GGTAGTTGCC | 1.02 ± 0.034 |
| TCGTTACCCT | 1.02 ± 0.011 |
| AGAGTGCTTC | 0.999 ± 0.028 |
| GGGGACCGGC | 0.954 ± 0.041 |
| GGGGGCGGGT | 1 ± 0.044 |
| CGGTTGCTTG | 0.996 ± 0.034 |
| GGGAAAAGGA | 1.018 ± 0.0094 |
| ACGGGTAGAC | 1.0808 ± 0.001 |
| GAAATATCAA | 0.974 ± 0.039 |
| CTTTTCAGGT | 0.998 ± 0.019 |
| GATTAATAAG | 1.16 ± 0.26 |
| GAGATAAGCC | 1.03 ± 0.022 |
| AGTGCCATTG | 0.9627 ± 0.0067 |
| TGGTAGTCGT | 0.994 ± 0.043 |
| ATTTGGTGGG | 0.97 ± 0.05 |
| TGTTTGGTC | 0.997 ± 0.013 |
| GACAGTTAGC | 1.03 ± 0.013 |
| TATGTATGC | 1.03 ± 0.014 |
| TTCGAGACGG | 0.98 ± 0.025 |

| Sequence | switch fluorescence ratio |
| --- | --- |
| CATGTATGGA | 1.01 ± 0.041 |
| ATCGGAATTG | 1.01 ± 0.015 |
| GTGGGTAGTG | 0.996 ± 0.038 |
| CGTGAGGGTC | 1 ± 0.059 |
| ATATGAGTTT | 1.01 ± 0.017 |
| AGGGTGCGGG | 1.01 ± 0.018 |
| GGGGGTGATC | 0.979 ± 0.024 |
| TTGGGTATGA | 1.01 ± 0.037 |
| ATGGATGGGC | 1.04 ± 0.057 |
| GAAGGTATTG | 0.977 ± 0.013 |
| ACACGTGGGC | 1.02 ± 0.029 |
| AGCAGGGGAC | 1.18 ± 0.23 |
| CTCTGTACAG | 1.01 ± 0.018 |
| ATTTGAATTA | 1.01 ± 0.034 |
| TTTTTGAGAG | 0.998 ± 0.032 |
| TTTTAGATGG | 1.2 ± 0.2 |
| TGCTGGTCTG | 1.02 ± 0.047 |
| CTGTTGATGG | 1 ± 0.027 |
| GGCCCGTGCA | 1.004 ± 0.0015 |
| GGGGTGCGGG | 0.99 ± 0.032 |
| TTTCTTTCTC | 1.02 ± 0.026 |
| GTGTTTGAAA | 0.998 ± 0.027 |
| CTAAGAAGCG | 1.1 ± 0.17 |

| Sequence | switch fluorescence ratio |
| --- | --- |
| GACGAAGCGG | 2.41 ± 0.047 |
| TCGGCTTTTT | 0.999 ± 0.025 |
| TTTGGGGAAG | 1.01 ± 0.025 |
| GGGAGTTAAT | 0.97 ± 0.019 |
| CCTCAAAGCT | 1.794 ± 0.0088 |
| GATCATTCTT | 1.01 ± 0.016 |
| GATGTCTGTT | 0.955 ± 0.021 |
| TAGGGAGGCT | 0.992 ± 0.038 |
| AGATGGCATG | 0.987 ± 0.019 |
| TTGTTACTCG | 0.976 ± 0.048 |
| GGGGGTCCGT | 1 ± 0.025 |
| TAGGTGGCTC | 1.03 ± 0.069 |
| TTTGGATTGG | 0.967 ± 0.023 |
| GTTTCGTGGG | 0.976 ± 0.031 |
| GGTGTGTTGC | 0.998 ± 0.06 |
| CAAGGAGTTA | 1.01 ± 0.04 |
| GAAAAAAGGA | 0.981 ± 0.028 |
| TGGGTTTTTG | 1.01 ± 0.039 |
| TAGGGCGCAG | 0.959 ± 0.028 |
| TTTTAGAAAT | 1.98 ± 1.3 |
| GCTGTTGGAG | 1.02 ± 0.031 |
| TTTCGGATAA | 1.02 ± 0.056 |
| TTCGTTGATG | 0.985 ± 0.016 |

| Sequence | switch fluorescence ratio |
| --- | --- |
| GATTGAGCGG | 1.01 ± 0.018 |
| GGGAGATAGC | 1.06 ± 0.015 |
| GCTAGGCGGA | 1.0381 ± 0.0006 |
| CCAGGGTCGC | 0.9965 ± 0.0067 |
| TATTATGGGT | 0.982 ± 0.036 |
| TGTTAGATTT | 1.05 ± 0.19 |
| ACGATGTGCT | 0.982 ± 0.015 |
| TGGCCCTTGG | 1 ± 0.054 |
| TGCGTCGGTG | 1.03 ± 0.049 |
| GGTTACCTTC | 1.356 ± 0.0068 |
| TAAACATCAC | 1.164 ± 0.011 |
| GATTCAAGTG | 0.96 ± 0.022 |
| TCTATAAGGT | 0.99 ± 0.022 |
| AAAGGGCGAT | 0.976 ± 0.011 |
| GAGTTCAATG | 1.01 ± 0.03 |
| CTACTGAAGG | 0.983 ± 0.014 |
| TTTTCATGAT | 0.991 ± 0.022 |
| ACATAGGCGG | 1.022 ± 0.0083 |
| AGAGCACTTG | 1.025 ± 0.0032 |
| AACGAAAATG | 0.997 ± 0.053 |
| CCCTGGGGTA | 1.07 ± 0.056 |
| GATGGCCAGC | 1.01 ± 0.041 |
| TAAATTTAAG | 1 ± 0.027 |

| Sequence | switch fluorescence ratio |
| --- | --- |
| AGAGTTGGGA | 1.01 ± 0.018 |
| GTTTGAAGCG | 1 ± 0.054 |
| TTCAATCTGT | 0.968 ± 0.064 |
| GCGTTTTATT | 0.976 ± 0.017 |
| AATGATTGTT | 0.992 ± 0.03 |
| TTGGGGTGAG | 0.981 ± 0.022 |
| GAGATGGTGC | 0.99 ± 0.053 |
| AAAGGAAATT | 1 ± 0.033 |
| GATAGGATAG | 0.991 ± 0.019 |
| TTATCAGTTT | 1.03 ± 0.062 |
| GGGGTGAGGT | 0.997 ± 0.016 |
| TCGAAATTCG | 1.02 ± 0.019 |
| CAGTATCGGA | 0.9814 ± 0.008 |
| GGGCAGTGGG | 1.05 ± 0.074 |
| TTGGCTCTGG | 0.987 ± 0.02 |
| CTTTTTGGGA | 0.987 ± 0.012 |
| TGCGGGGGTG | 1.05 ± 0.018 |
| TATATAGTCT | 1.024 ± 0.0086 |
| CGATTGAATC | 0.991 ± 0.021 |
| GTATTATGGG | 1 ± 0.029 |
| CGGGGCGCGG | 0.977 ± 0.024 |
| AACTTTTATG | 1 ± 0.026 |
| GGGGAGTGAA | 0.992 ± 0.031 |

| Sequence | switch fluorescence ratio |
| --- | --- |
| CGCGGAGCGC | 1.17 ± 0.15 |
| CAGTATGTCC | 0.966 ± 0.035 |
| TGGGGGGCGA | 0.997 ± 0.011 |
| CAGTGAGACT | 1.02 ± 0.037 |
| TTTACCGGTA | 1.01 ± 0.023 |
| TTCTTTTTGA | 1.43 ± 0.59 |
| CAAGGGTCGG | 0.996 ± 0.033 |
| TCGAATGGCT | 1 ± 0.044 |
| CTAACGGGCT | 0.995 ± 0.058 |
| TCACGAACCT | 1.69 ± 0.1 |
| AGCAAAGAAT | 1.02 ± 0.042 |
| TAAAGGGATG | 0.956 ± 0.017 |
| TAATTGAAAA | 1.14 ± 0.15 |
| ACCACAGTTC | 1.06 ± 0.015 |
| GACGCGGCGT | 1.02 ± 0.029 |
| GGGATCGGTT | 0.982 ± 0.034 |
| ACCAGGAGAT | 1.046 ± 0.0011 |
| CGGAATTGGG | 0.9735 ± 0.0085 |
| TATATATGAC | 1.01 ± 0.022 |
| TGTTAATGGT | 0.994 ± 0.025 |
| TCGAAGGATA | 0.992 ± 0.011 |
| GGGTAACTTT | 1.08 ± 0.07 |
| GGGTGGAGGA | 1.008 ± 0.0038 |

| Sequence | switch fluorescence ratio |
| --- | --- |
| CTGTTGTCGG | 0.989 ± 0.038 |
| TACGAATAAT | 1.1 ± 0.075 |
| TTGGGCTGGG | 1.01 ± 0.026 |
| CACAAGGACG | 0.962 ± 0.017 |
| TCCTGCGGGG | 1.12 ± 0.12 |
| GATGAATGGA | 0.959 ± 0.011 |
| ATGGGGGGAG | 0.997 ± 0.025 |
| GTACGGGGAA | 1.04 ± 0.03 |
| TCGGTATTTT | 1.01 ± 0.026 |
| TTGGCGAGGA | 1.003 ± 0.0024 |
| ACATAATTAG | 1.016 ± 0.0095 |
| TTCGGTCTAA | 0.979 ± 0.023 |
| TAGAGCTAAT | 1.09 ± 0.17 |
| CATTTTTAAG | 1 ± 0.011 |
| ACGGCATTGC | 1.19 ± 0.037 |
| GGTGATTTAT | 1.01 ± 0.029 |
| CAATGCATGC | 1.14 ± 0.082 |
| AGGGGTTTGT | 1.02 ± 0.017 |
| ATGTATAGCA | 1 ± 0.041 |
